This passage reports reduction in transport (oral delivery of 125I-labelled protein into neonatal rat serum) in the presence of 300-fold excess unlabeled human IgG1, by phosphorimage analysis results from patent US20050186662A1.

In the experiment the target is neonatal Fc receptor (FcRn) of the neonatal rat small intestine (rat) (UniProt P13599). Kind of experiment: cell-based or functional assay.
Sequence of UniProt P13599 (P13599 23-366, form in doubt): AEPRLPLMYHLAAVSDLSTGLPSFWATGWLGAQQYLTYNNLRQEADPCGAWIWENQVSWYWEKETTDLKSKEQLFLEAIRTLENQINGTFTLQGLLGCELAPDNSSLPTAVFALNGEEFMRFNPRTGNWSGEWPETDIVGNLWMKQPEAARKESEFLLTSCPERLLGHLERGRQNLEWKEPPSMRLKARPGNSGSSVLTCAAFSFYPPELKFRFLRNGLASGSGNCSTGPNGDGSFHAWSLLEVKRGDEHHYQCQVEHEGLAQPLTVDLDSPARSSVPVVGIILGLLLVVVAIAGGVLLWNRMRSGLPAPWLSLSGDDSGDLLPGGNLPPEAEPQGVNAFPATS

In the case of heterodimer FSH-Fc (Fc fusion), the reduction in transport (oral delivery of 125I-labelled protein into neonatal rat serum) in the presence of 300-fold excess unlabeled human IgG1, by phosphorimage analysis was 53%.

In the case of “single-chain FSH-Fc (from UniProt P01225 19-129; P01215 25-116) (Fc fusion)”, the reduction in transport (oral delivery of 125I-labelled protein into neonatal rat serum) in the presence of 300-fold excess unlabeled human IgG1, by phosphorimage analysis was found to be 83%.
